According to US20260022176A1 (PARAGON THERAPEUTICS, published 2026):
Values joined by “and” are separate entries in the source; they are usually repeats but may differ in a detail not shown here. Identical values can stand only once.

Assays:
[1] = molecular target: T1, Cyno- α4β7 (Cyno); assay: SPR with multiple cycle kinetics
T1 construct: SPR antigen; construct not described; also called cynomolgus α4β7 integrin

[2] = molecular target: T2, Dog- α4β7 (Dog, UniProt A0A8I3PRY8 36-976; A0A8I3P7W0 20-723); assay: SPR with multiple cycle kinetics
T2 construct: SPR antigen; construct not described; also called dog α4β7 integrin; copies: 1 + 1

[3] = molecular target: T3, Rabbit- α4β7 (Rabbit, UniProt G1TY34 34-977; G1SFE7 20-723); assay: SPR with multiple cycle kinetics
T3 construct: SPR antigen; construct not described; also called rabbit α4β7 integrin; copies: 1 + 1

[4] = molecular target: T4, rat α4β7 integrin on rat PBMCs (rat, UniProt D3ZMQ3 38-1036; G3V7M2 20-791); assay: flow cytometry on cryopreserved rat PBMCs
T4 construct: whole, on cells; That the target on them is α4β7 is inferred from the purpose of the study; also called cells isolated from rats

[5] = molecular target: T5, mouse α4β7 integrin on mouse PBMCs (mouse, UniProt Q00651 41-1039; P26011 20-806); assay: flow cytometry on cryopreserved mouse PBMCs
T5 construct: whole, on cells; That the target on them is α4β7 is inferred from the purpose of the study; also called cells isolated from mice

[6] = molecular target: T6, monkey α4β7 integrin on monkey PBMCs (monkey); assay: receptor occupancy: competition with fluorescently labeled antibody, flow cytometry; all cell types, monkey PBMCs; mean, n = 7
T6 construct: whole, on cells; Receptor occupancy on CD4+, CD20+ and CD45RO+ cells from monkey donors
Description: (§1) The IC₅₀ values for competitive inhibition were determined by titrating unlabeled Ab001 into samples equilibrated with EC₅₀ concentrations of fluorescently labeled Ab001. Ab001 and Comparator Antibody Receptor Occupancy (IC₅₀) on CD4+, CD20+, and CD45RO+Cells from Human and Monkey Donors are shown in Table 2B.

[7] = molecular target: T6, monkey α4β7 integrin on monkey PBMCs; assay: receptor occupancy: competition with fluorescently labeled antibody, flow cytometry; CD20+ B cells, monkey PBMCs; range, n = 3 donors
Description: as §1

[8] = molecular target: T6, monkey α4β7 integrin on monkey PBMCs; assay: receptor occupancy: competition with fluorescently labeled antibody, flow cytometry; CD4+ Th cells, monkey PBMCs; range, n = 3 donors
Description: as §1

[9] = molecular target: T6, monkey α4β7 integrin on monkey PBMCs; assay: receptor occupancy: competition with fluorescently labeled antibody, flow cytometry; CD45RO+ memory T cells, monkey PBMCs; n = 1 donor
Description: as §1

[10] = molecular target: α4β1 integrin on cells (α4β1-positive Ramos cells; HuT-78 cells) (UniProt P13612 34-1032; P05556 21-798, limits assumed); assay: cell-based or functional assay

Row | Kd [1] [nM] | Kd [2] [nM] | Kd [3] [nM] | binding result [4] | binding result [5] | IC50 [6] [nM] | IC50 [7] | IC50 [8] | IC50 [9] [nM] | VCAM-1 Inhibition IC50 (adhesion of HuT-78 cells to coated recombinant VCAM-1) [10] [nM] | Binder
1 | 2.72 | 4.81 | 6.26 | no binding | no binding | 0.5 | 0.46 nM and 0.5 nM | 0.49 nM and 0.54 nM | 0.53 | – | α4β7 binding antibody Ab001 (antibody, human IgG1, kappa, also called long acting α4β7 targeting molecule; Ab001-A647) heavy: QVQLVQSGAEVKKPGASVKVSCKGSGYTFTSYWMHWVRQAPGQRLEWIGEIDPSESNTNYNQKFKGRVTLTVDISASTAYMELSSLRSEDTAVYYCARGGYDGWDYAIDYWGQGTLVTVSSASTKGPSVFPLAPSSKSTSGGTAALGCLVKDYFPEPVTVSWNSGALTSGVHTFPAVLQSSGLYSLSSVVTVPSSSLGTQTYICNVNHKPSNTKVDKKVEPKSCDKTHTCPPCPAPELAGAPSVFLFPPKPKDTLYITREPEVTCVVVDVSHEDPEVKFNWYVDGVEVHNAKTKPREEQYNSTYRVVSVLTVLHQDWLNGKEYKCKVSNKALPAPIEKTISKAKGQPREPQVYTLPPSRDELTKNQVSLTCLVKGFYPSDIAVEWESNGQPENNYKTTPPVLDSDGSFFLYSKLTVDKSRWQQGNVFSCSVMHEALHNHYTQKSLSLSPG light: DVVMTQSPLSLPVTPGEPASISCRSSQSLAKSYGNTYLSWYLQKPGQSPQLLIYGISNRFSGVPDRFSGSGSGTDFTLKISRVEAEDVGVYYCLQGTHQPYTFGQGTKVEIKRTVAAPSVFIFPPSDEQLKSGTASVVCLLNNFYPREAKVQWKVDNALQSGNSQESVTEQDSKDSTYSLSSTLTLSKADYEKHKVYACEVTHQGLSSPVTKSFNRGEC
2 | 1.2 | 1.77 | 5.34 | no binding | no binding | 0.56 | 0.42 nM and 0.66 nM | 0.48 nM and 0.6 nM | 0.58 | – | comparator antibody (antibody, human IgG1, kappa) heavy: not shown light: DVVMTQSPLSLPVTPGEPASISCRSSQSLAKSYGNTYLSWYLQKPGQSPQLLIYGISNRFSGVPDRFSGSGSGTDFTLKISRVEAEDVGVYYCLQGTHQPYTFGQGTKVEIKRTVAAPSVFIFPPSDEQLKSGTASVVCLLNNFYPREAKVQWKVDNALQSGNSQESVTEQDSKDSTYSLSSTLTLSKADYEKHKVYACEVTHQGLSSPVTKSFNRGEC
3 | – | – | – | – | – | – | – | – | – | 0.23 | Natalizumab (antibody, V domains shown) VH: QVQLVQSGAEVKKPGASVKVSCKASGFNIKDTYIHWVRQAPGQRLEWMGRIDPANGYTKYDPKFQGRVTITADTSASTAYMELSSLRSEDTAVYYCAREGYYGNYGVYAMDYWGQGTLVTVSS VL: DIQMTQSPSSLSASVGDRVTITCKTSQDINKYMAWYQQTPGKAPRLLIHYTSALQPGIPSRFSGSGSGRDYTFTISSLQPEDIATYYCLQYDNLWTFGQGTKVEIK
